The results in this text go back to article doi:10.1101/2023.02.13.525685.

In test [1] the target is RjoGlgAc (GT4 glycosyltransferase GlgAc from Rhodococcus jostii RHA1) (Rhodococcus jostii RHA1). Briefly: SEC.
Test [2] deals with RjoGlgAb (GT4 glycosyltransferase GlgAb from Rhodococcus jostii RHA1) (Rhodococcus jostii RHA1). The test is described as follows: SEC.

Some results are limits rather than exact numbers.

In test [1], “RjoGlgAc (GT4 glycosyltransferase GlgAc from Rhodococcus jostii RHA1) (enzyme)” registered a stoichiometry N of 2.

For the substance “RjoGlgAb (GT4 glycosyltransferase GlgAb from Rhodococcus jostii RHA1) (enzyme)”, the stoichiometry N in test [2] is greater than 15 subunits.
